In data set [1] the target is human TFIIH core module (core TFIIH), seven subunits: XPB, XPD, p62, p52, p44, p34, TTDA (human, UniProt P19447 1-782; P18074 1-760; P32780 1-548; Q92759 1-462; Q13888 1-395; Q13889 …). The data set can be described thus: cell-based or functional assay.
In data set [2] the target is XPB (core TFIIH);XPD (core TFIIH);p62 (core TFIIH);p52 (core TFIIH);p44 (core TFIIH);p34 (core TFIIH);TTDA/p8 … (Homo sapiens;Homo sapiens;Homo …, UniProt P19447;P18074;P32780;Q92759;Q13888;Q13889;Q6ZYL4;P23025 …, |||||||). The data set can be described thus: cryo-EM structure (3.6 A); 2 mM Mg2+ at assembly; XPG E791A added (3:1 excess over TFIIH) but not visible in the map; glutaraldehyde-fixed gradient; DNA register shift not excluded; Complex assembly: 150 mM KCl, 20 mM KOH:HEPES pH 7.0, 10% glycerol, 2 mM MgCl2, 5 mM beta-mercaptoethanol; sucrose gradient pH 7.5, 4 C, 0.1% glutaraldehyde; helicase/triplex assays (turnover) left out. The note with it: copies: 1;1;1;1;1;1;1;1; fork, 29 bp duplex 1:21-49 with 2:1-29; unpaired arms 20 nt 5' (strand 1: 1-20) and 20 nt 3' (strand 2: 30-49).

B1: XPG (natural protein, human, UniProt P28715 1-1186, looked up)
chain: MGVQGLWKLLECSGRQVSPEALEGKILAVDISIWLNQALKGVRDRHGNSIENPHLLTLFHRLCKLLFFRIRPIFVFDGDAPLLKKQTLVKRRQRKDLASSDSRKTTEKLLKTFLKRQAIKTAFRSKRDEALPSLTQVRRENDLYVLPPLQEEEKHSSEEEDEKEWQERMNQKQALQEEFFHNPQAIDIESEDFSSLPPEVKHEILTDMKEFTKRRRTLFEAMPEESDDFSQYQLKGLLKKNYLNQHIEHVQKEMNQQHSGHIRRQYEDEGGFLKEVESRRVVSEDTSHYILIKGIQAKTVAEVDSESLPSSSKMHGMSFDVKSSPCEKLKTEKEPDATPPSPRTLLAMQAALLGSSSEEELESENRRQARGRNAPAAVDEGSISPRTLSAIKRALDDDEDVKVCAGDDVQTGGPGAEEMRINSSTENSDEGLKVRDGKGIPFTATLASSSVNSAEEHVASTNEGREPTDSVPKEQMSLVHVGTEAFPISDESMIKDRKDRLPLESAVVRHSDAPGLPNGRELTPASPTCTNSVSKNETHAEVLEQQNELCPYESKFDSSLLSSDDETKCKPNSASEVIGPVSLQETSSIVSVPSEAVDNVENVVSFNAKEHENFLETIQEQQTTESAGQDLISIPKAVEPMEIDSEESESDGSFIEVQSVISDEELQAEFPETSKPPSEQGEEELVGTREGEAPAESESLLRDNSERDDVDGEPQEAEKDAEDSLHEWQDINLEELETLESNLLAQQNSLKAQKQQQERIAATVTGQMFLESQELLRLFGIPYIQAPMEAEAQCAILDLTDQTSGTITDDSDIWLFGARHVYRNFFNKNKFVEYYQYVDFHNQLGLDRNKLINLAYLLGSDYTEGIPTVGCVTAMEILNEFPGHGLEPLLKFSEWWHEAQKNPKIRPNPHDTKVKKKLRTLQLTPGFPNPAVAEAYLKPVVDDSKGSFLWGKPDLDKIREFCQRYFGWNRTKTDESLFPVLKQLDAQQTQLRIDSFFRLAQQEKEDAKRIKSQRLNRAVTCMLRKEKEAAASEIEAVSVAMEKEFELLDKAKGKTQKRGITNTLEESSSLKRKRLSDSKGKNTCGGFLGETCLSESSDGSSSEDAESSSLMNVQRRTAAKEPKTSASDSQNSVKEAPVKNGGATTSSSSDSDDDGGKEKMVLVTARSVFGKKRRKLRRARGRKRKT
For the molecule B1, the “XPD 5′–3′ helicase activity of core TFIIH (rate of DNA unwinding, stopped-flow kinetics), with XPG against without” value in data set [1] is 20 fold.

B2: cryo-EM DNA scaffold (forked) (mixed)
DNA 1: CAAAGTCACGACCTAGACACTGCGAGCTCGAATTCACTGGAGTGACCTC
DNA 2: GAGGTCACTCCAGTGAATTCGAGCTCGCAACAATGAGCACATACCTAGT
Take B2: the binding result in data set [2] is on record as “binds”.

These data come from PMC6599211, “Structural basis of TFIIH activation for nucleotide excision repair” (Nature Communications, 2019).
